Measured values taken from the supplement of paper PMC12636428.

test system: Saccharomyces cerevisiae; experiment: transcriptional activation domain activity (GFP:mCherry ratio, weighted mean of sorted bins, harmonized to initial dataset scale) (arbitrary fluorescence ratio units); higher = stronger transcriptional activation; conditions: beta-estradiol 1 µM; induction time 4 h
Procedure, shortened: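 Each value is an activation activity: the read-weighted mean of bin median fluorescence, averaged across barcodes, then mapped linearly to the initial dataset scale. The tiles, fused to an estradiol-inducible synthetic transcription factor, sat at the yeast URA3 locus in GFP-reporter diploids. Cells spent 4 hours at 30 °C in SC with 1 uM beta-estradiol before sorting into 8 GFP:mCherry bins, and tiles below 50 reads were removed.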

Sequence | transcriptional activation domain activity
VDDSDDDGDEEGGKNEESITKKGVRLLDYACGTGLVSRVSHIPSIAGASSRSL | 46600
VDFVKHLISCFSVVGEDNFACTLKGFGWMYLTHVYFFFNVFVALNLQLIILLS | 60000
VDILLKRISTFSYTDSLTMSVAGQLRILYRFINVFYTARDLIGFLALVEKALD | 22700
VDLSDLGEAVINQSNHNNDNDNSNNGDGNNNNTISELVCFDESIADLYPVEID | 71500
VDLTQLSHLMLKIWLELILIVVYKHNILERTYENMVISCMKQVIDLLARDISE | 51900
VDNLLLPLAIHHRFLSYCLYIIGFVYFVYSLEKGHYKFQFTQFCITHMTLFLV | 50900
VDNQFLSTRSIVTEACRKRGIYLTWIDSDPDILNYLQLSTFQFIVLLMLPLTP | 42900
VDRFKEFSHFLRRNENRTPSMIVLRRLCLDVSFLLCVVGFVRILWKRSGMRRR | 62400
VDRSHLELIFGLPIWRLSGILVQTVWYVFQTGFSTLLSLCLFLVSAKRWIVWR | 52400
VDTCRLSAPLVWWLTFGILCTMYLLVLEVILFGILVFMVLPFIMLLYSIMLLC | 49100
VEAAEPEIEVPNKDSRPSKRGRKEKVIEEEDSAPVDKPVSKGKKAAPVAKTAL | 15300
VEAGDGDGAPPKSAKRPRKKKEPVEEGDGDAAAPKPAKRPRKKKVDVTEAQKE | 48100
VEANTSANLHFDNVIPTVTNADIRKKRSNWDNMMTSGPVEDFWTINDDYGFLT | 141000
VEAPAEEQAEAPKTKRGRKAAEPAPVEPKEAEAPEPAAKPKRGRKAVSEEPME | 42100
VEEQKPVAEEAPVRTKVEESKVQEAPVVEAKAEVAVTAAAAVAATAAVATAAV | 23500
VEEVLEKRAHRGPAGRSVEEEDEDVEEVLEKRAHRGPAGRSVEVEEKRAHRGP | 29700
VEFLFPIYATVAFTTLGCISMFALPYAVLTILPNFYLNCPYGTPLSGVTWRLS | 61600
VENPVTDDNGNLKLELPDNLDNADFSKLLEFDAKNDEALFNSNELLSHTMDPV | 94700
VEPAPENWRELTQIPAFAGIRSASFVRHTVALVESLLLRAAFVRAVFAELRAC | 53700
VEQYLHLLPPHSLQEIRWRWRMTKVSRPIPEKMKLVRLNLKAVKHIHLFMKSA | 31500
VERCHRNIVPNGCAVFQAGGLVVVLVEVSRKSYLASLVPVIVNAILNEHQIVV | 65300

Sequence | transcriptional activation domain activity
VERCHRNIVTNGCAVFQAGGLVVVLVEVNRKSYLASIVPVIVNAILNEHQIIV | 40900
VETRSFWFLPVIQKHALHLTMVDILSSTPGIWCLSEFMIGHLLLCVHLRSISV | 60500
VFCMLYTLLHILAACLHYHCFSHLAPPYQTLLWYSYFNVIIVGLLLFWYCELV | 35100
VFERVRLDWLILFDLRMWKKVRNDLRALYISTVVTIPEFKRILGLRFAALYTT | 51300
VFFFLVIALYPFFSSLFTRHGFYTFSPFNCQLSWLFFQWGHSILLFLLRLVSY | 46600
VFFLSLCFASFFPLGHLCWAKGLFHTLEFIAPISRSVSCYVMGLVLYTFHLPE | 22000
VFFMPSMCSGYLWISLCYLSFWTNMREWRLKRKVVWFLCLFWVFMCCLLFYLT | 34700
VFFVWICCCYGTHILSVFVDPSGMYIVPLNILGSLLHGSTLPCIVASWLIIHL | 45600
VFIAVLSCVGTCGASYLCISFMPLVCHNSPYYTPLSSLIWSCRAGLRCLYLWI | 55300
VFLFLLTYFTIDIGLTNLPPLVIITVYLPHPPPLPDILLYWVLFLCCAVWGAV | 39800
VFLGMLFWHCRNYLTSYHYLFSTLAIWVLSYIMRLFYLNWSNPWRMSWLIGDE | 58300
VFLHHFRRAIFPLCNLVCSSWNVITFSHPWMIFAIIMFLHWSWILGLQKGMLI | 83600
VFLKVYLLNPLHMTRFADLLYQGAILNRIFQPYESHLQYLLQWMCDYNLYGCA | 71200
VFLNGILFLGSILFYQVVLLRLNWYLLHILAYTIAFAYNAFWLYPVYCLSFLL | 33000
VFRLCLGDLFRPYGISLNVIRLMLMATGTDLDFYVPRSKWRQVLLFLRLASGY | 72200
VFRLYFYLLYFIFYRNLFARLRNWEQYTLIQVASSVWVIIFYPLRMTRTTHGL | 65900
VFSQTEAIRVLGLIGRIATGRHLDIILSDILPPSTVAELYALGKFMNLPWWYR | 58400
VFTDSLFQIVLVGRLTGFFYSFSFLFFFLSFFFFFSFIPFFPPFLYGLFFFLF | 67600
VFTSLHTCRFAAPHLWWLIFSILCLQYLIILEVFVIAMLVFIIGPLIYLFWNI | 42600
VFVPIPGLRNRRVHILLPNLYLLHQITFFRFSRRRSTLVLLLVCVSIVFAMYA | 36500
VFWRSLFNRVFDFGFDLVLFVFFSLALSLYFVVSHSKSLPFWFMCFFFIPLFN | 78000

Sequence | transcriptional activation domain activity
VFYGSNYFFICAISYVKGLGFCISDSFRYSWMSISPYWMIFMVVCNILPAILI | 63900
VGAVMVRGQDYVPAFDVAPDWESYDYAKLDPTNDDDKEFINNMWAWDKPVSVN | 57300
VGEEGEEKESMRVRVREEMVAQATSLAFLRNVNAIGEETTSLLDTAARLVRIG | 63700
VGETVVTFCYEDGIMVMAMVGSGFMGYYLYTLQVKHSFSGPGPWFLGMALICL | 68700
VGEWMGGGVGCLAAWLGHGIRIFGGTEYWLVPEFFFPLFLFFSFPPWSLVLFC | 74100
VGGEANGEVVKRKSKKKGGKEETDTEVVDGEDQSSRKVATRKLSRGKAEKKAK | 48900
VGIKVAEDKQQEMRDAGRRTRGARLSSFGNALVIGGGRLSDGYVGTRELKTHV | 50500
VGISLFLIACKLYLTVYYNELLISNPASAKSIYKILEYVNIMVYVSKAFGMYQ | 62800
VGKSCGRCRFPICYNPRGTCICCALRSNIVIPWMHFAYRNPHDRKPFVLHFTF | 41700
VGLAIYCVSQHLMIPSATELICMYPVVNSTIGLITYYYLIFSFLFGIMIITYC | 64600
VGLFGMGQKRISALIGVLFAFTLGCVLILRWRLPWYRNLIQTLLYHLFVIYLH | 52600
VGLKWGMGRDKSFSFTSKLNNPQFLGSLDLEILEELEKLISAQEFSRNFTEDV | 70100
VGLVGMSLSILGKDHLVWNALAACRTEISEVFERMLRALYHWMIDVAHQYCGK | 56300
VGLYSLCIVSGILFPLYICCWREDFLIQNFVHRSLFTLVFMLLFLLGLIFLEF | 56900
VGPLSLDIILNKYDQDTELCAIVHESRRMLVRFYDIVKQNAMVIYSVFLWIPT | 50900
VGRLVWFVTLLHVLFWVVQVLKDRRALTGKLVFAYVWQYQKFRFAWVAFLSMT | 75200
VGRVTDKSSLVYDWPFDESIERNFSTTATAATGESKFDINDNCNRINSKSYSK | 45900
VGSAINTRLTTPKLVDSPKRPGCLSISRKDQHETYLSLLMRLVVASKMCLSAY | 50800
VGSLVYVTRYSEHLLVSGEFGPELLGAGAYYGGMLWFFFSSQNYRLLFHWQFW | 49800
VGSWTFGSIMVFGFSYLALTVLPNLCLNCPYSTPVSEMSWHLSHRLLLFILLL | 31800
VGTLHENLSSSHFMIPDVDQFNSFEDFFQDFFDSLKPNSQKMFTSDKKTEQTT | 106000

Sequence | transcriptional activation domain activity
VGTVMFGLACASSTQVLLSLIGGWNVGFFISLLAVTIFAVLTKIIPWVWYIYS | 58300
VGVWIWVRVDLLSYRKAGFIDWLFTDVPPKLALIAIFNVHILHTLLLALQWYT | 55400
VHANQYYQLDVEIFKSSLDMELLGLLWNKYWINTLSQSPLISVSLFCYGHIFI | 57800
VHEQLEVALRRWRISSIMEGTRVRDVLIRLPLAHSFASLSSKVNILLHEMLFE | 45700
VHEVRAKAVKLVTASDSDDESGAGAGKAKKSEWKTQGVGPLRLLKNKSTGAVR | 32400
VHFIYHHSFRMRFYYFFLLSFLQAGRSIGFLIHGFWCFLLLIAFFVYPFLRFV | 64600
VHGSSFLVRYFVYITPLVLVILIPLLLGALLFKHASVAGVEMVWFCIWLEIVW | 50100
VHLGVLFTLSIPYVRLWLIPRLFVCIFVRAFLFLLLFSGIVYPEFFFFFFFLR | 40800
VHLLLTVFFHYVPTPDPFFTNLLLCPLDGLLRANSVTLALSLLSRPSINPLLV | 58300
VHLTLNLGTYLRVISIGKPFPMWLDYWYNYGYILYCAILQLYELWQIVILIWL | 60100
VHNNSNNSNNSNISASDYTVANNSTSNNNNNNNNNNNNNNNIHPNQFTAAANM | 39200
VHPIVCLVVCLLGHIWSFHVYYCLLKIGLLFSLFPLVRLARCAIFYRRCFSYF | 40200
VHVNDMVGFKFMSDKHEIFSKVLLTDVLKGTLAHQWLGYNVLFSNGSEWHFFR | 59100
VIDGSYTTSLKMILFLLAISGQNLLFFFILISLTFLLFLFSTCLCMILLDALI | 22100
VIEGNTSPAVGIEMCHVMLCSLVKELYQRVAASGMTFVLSVSVECLLSQTLQT | 31800
VIEKLFWRVSALYICTHQFLLWALFMIRDYLLSKYPGSQLVLRCHMVLKIMLF | 46400
VIFSFLVLNFFYFSISFFLSSSFISYFHFHLSLFPFPFSFVFLIHYLFSFIVN | 26300
VIGGGATGSGVAVDAASRGLKVALVERDDFSSGTSSKSTKLVHGGVRYLQKAV | 69700
VIHLMNMGQVSILFIHRFIYGVVPLFEIVSCSFWPLLVSLWHLDYILIYLIMF | 46300
VIHTTAKPYKLHFSNTLLVSTVGLLALLVTTMVFVPWNNYYLPRKWGVFLICF | 42700
